Among the data in patent publication US20220017573A1 are peptide concentration to which the PsptA, PslvX and PcomS luxAB reporters respond in WT background and lowest peptide concentration values, retold here.

For one assay, the target named is ScuR/SarF system. Description: cell-based or functional assay.
The target of assay [1] is ScuR-StrepTag (Streptococcus salivarius HSISS4). Description: EMSA: Cy3 PsptA probe, constant ScuR-StrepTag, decreasing sBI7; peptide-dependent ternary complex.

Bounds are passed on as bounds.

B1: sBI7 (peptide)
peptide: LPFWLILG
In the assay with ScuR/SarF system, B1 returned a peptide concentration to which the PsptA, PslvX and PcomS luxAB reporters respond in WT background below 1 nM. Moreover, in assay [1], the lowest peptide concentration at which ScuR shifts the PsptA probe stood at 0.08 nM.
